Among the data in the RNAGym collection of RNA variant scans (doi:10.7554/elife.80360) are self-cleavage values, retold here.

The labels stand for the following.
B1: HDV Ribozyme (parent)
chain: GGCCGGCAUGGUCCCAGCCUCCUCGCUGGCGCCGGCUGGGCAACAUUCCGAGGGGACCGUCCCCUCGGUAAUGGCGAAUGGGACCCA

Variants of B1 are the subject of this series. The series can be described thus: self-cleavage, relative activity (ratio to wild type); higher = more cleavage; co-transcriptional.
In the case of G1U C57G, the self-cleavage stood at 0.196.
Consider G1U C57A, for which the self-cleavage came out at 0.423.
Regarding G1U C57U, the self-cleavage came to 0.428.
Next, G2A C75U: 0.0715; G2A A43G: 0.0234.
Next, G1U U37C: 0.415; G2C C14U: 0.0504; G2C C14A: 0.0615.
Next, G2A C4A: 0.0615; G2A C4G: 0.0563; G2A A56U: 0.115.
In the case of G2A A56C, the self-cleavage was determined as 0.148.
For the variant G2C A45U, the self-cleavage worked out at 0.
Under G1A C85A stands 0.0852; under G1C G39U, 0.116.
Under G1C G39A stands 0.203; under G1U C44U, 0.252.
Take G2U A51C: the self-cleavage was 0.0528.
G2A G35C: the self-cleavage came out at 0.0326.
Consider G1U G6C, for which the self-cleavage was 0.656.
Under G1U G67U stands 0.332; under G1U C3G, 1.6.
Turning to G2C C36G, the self-cleavage worked out at 0.26.
On to G2C U79A, for which the self-cleavage came to 0.133.
For the variant G2C G31A, the self-cleavage stood at 0.0382.
Regarding G1U A8U, the self-cleavage is 0.388.
Under G1U A8C stands 0.415.
Next, G1U A8G: 0.426; G1C A56C: 0.172; G1C A56G: 0.356.
For the variant G1C G28U, the self-cleavage is 0.107.
Regarding G1U C15G, the self-cleavage was determined as 0.0852.
On to G1U C15A, for which the self-cleavage came to 0.302.
As to G1U C15U, the self-cleavage is 0.269.
As to G2C G82C, the self-cleavage turned out to be 0.0272.
Take G1U G38U: the self-cleavage amounted to 0.295.
Take G2A G17U: the self-cleavage stood at 0.0432.
Under G1A U46C stands 0.208; under G1A G5U, 0.101; under G1A G5A, 0.0755.
On to G1C C30A, for which the self-cleavage was 0.104.
In the case of G2C C86G, the self-cleavage worked out at 0.0252.
In the case of G2C C41U, the self-cleavage was 0.0475.
Take G1U C41A: the self-cleavage was found to be 0.496.
As to G2A C33A, the self-cleavage turned out to be 0.0548.
Consider G1C G76C, for which the self-cleavage is 0.237.
Under G1U G39A stands 0.24; under G1A C18G, 0; under G1A C18U, 0.0475.
Consider G2A U12G, for which the self-cleavage worked out at 0.0405.
Consider G2A U12A, for which the self-cleavage was found to be 0.
Next, G2A C48A: 0.17; G2A C48U: 0.216.
For G2A C48G, the self-cleavage worked out at 0.157.
As to G2C C3A, the self-cleavage came out at 0.103.
As to G2C C3U, the self-cleavage is 0.102.
For the variant G1U C33A, the self-cleavage was 0.295.
Turning to G2C U46C, the self-cleavage was 0.0475.
Under G2C C75U stands 0.0594; under G1C A77U, 0.
Regarding G1C A70G, the self-cleavage was determined as 0.453.
G1C A70U: the self-cleavage was found to be 0.115.
G1U G34U: the self-cleavage was found to be 0.215.
For the variant G1U G34A, the self-cleavage was 0.298.
Next, G2C G59U: 0.0343; G1C A83C: 0.185; G1C U69A: 0.0875.
Regarding G1U C61U, the self-cleavage amounted to 0.377.
For G2C C18U, the self-cleavage came out at 0.0615.
For G1C G55C, the self-cleavage came out at 0.214.
For the variant G1C G55U, the self-cleavage stood at 0.203.
As for G2C U20G, the self-cleavage is 0.
Take G1A C62U: the self-cleavage came to 0.0791.
Consider G1U C7U, for which the self-cleavage stood at 0.269.
As for G1C G6A, the self-cleavage was 0.0554.
For G1C A87G, the self-cleavage came out at 0.0712.
Take G1U U72G: the self-cleavage worked out at 0.269.
Next, G2C A42C: 0.122; G2C G25C: 0.0346.
Take G2A U20C: the self-cleavage amounted to 0.0536.
Next, G1U A77U: 0.146; G1A G35C: 0.0723.
For the variant G1U C64G, the self-cleavage was found to be 0.432.
Under G1U C64A stands 0.453; under G2A G67C, 0.0536.
With G2A G67U, the self-cleavage stood at 0.157.
Take G1A C30A: the self-cleavage came to 0.0875.
For the variant G1U U69G, the self-cleavage was 0.435.
Consider G1A C64G, for which the self-cleavage turned out to be 0.095.
For the variant G1C A78U, the self-cleavage is 0.0755.
Consider G2C C13U, for which the self-cleavage worked out at 0.153.
On to G1U G68A, for which the self-cleavage is 0.496.
As to G2C G34C, the self-cleavage turned out to be 0.
As to G1C G5U, the self-cleavage was 0.175.
In the case of G2C G17U, the self-cleavage came to 0.0784.
With G2C U37G, the self-cleavage stood at 0.
Take G2U A77C: the self-cleavage stood at 0.0674.
For G1A G67U, the self-cleavage was 0.297.
For G1U C66G, the self-cleavage amounted to 0.211.
In the case of G1U C66A, the self-cleavage worked out at 0.535.
As to G1U C84U, the self-cleavage was found to be 0.389.
Turning to G1A C22G, the self-cleavage was determined as 0.0978.
As for G1C U60G, the self-cleavage worked out at 0.0594.
Turning to G1C C7U, the self-cleavage is 0.0475.
Take G1C C7A: the self-cleavage was determined as 0.0405.
Next, G1A U23A: 0.217; G1A G2A: 0.457; G2A G73A: 0.0742.
For G1U U79C, the self-cleavage came to 0.332.
Regarding G1U U79A, the self-cleavage amounted to 0.178.
On to G2A G5A, for which the self-cleavage turned out to be 0.0343.
For G1C G73C, the self-cleavage was 0.142.
Regarding G1C C48G, the self-cleavage came out at 0.346.
As to G1A G29U, the self-cleavage stood at 0.0639.
Take G1A C4G: the self-cleavage came out at 0.123.
G1A C4U: the self-cleavage came out at 0.252.
Regarding G2C G50U, the self-cleavage was 0.0594.
Under G1C C19U stands 0; under G2A C64U, 0.18; under G2A C64A, 0.248.
Regarding G1U A83U, the self-cleavage amounted to 0.358.
With G1A C75A, the self-cleavage turned out to be 0.161.
As for G1A C75G, the self-cleavage came out at 0.108.
Take G2C U72C: the self-cleavage amounted to 0.142.
Regarding G2C U72G, the self-cleavage was found to be 0.0791.
As for G1A C63G, the self-cleavage came out at 0.249.
Turning to G2A C14A, the self-cleavage came out at 0.0804.
G1U G10U: the self-cleavage was 0.336.
Take G1C C32A: the self-cleavage amounted to 0.
As for G1C C32U, the self-cleavage worked out at 0.192.
Take G1C G34C: the self-cleavage was determined as 0.0594.
With G2C U69A, the self-cleavage came to 0.0252.
For the variant G2C U69G, the self-cleavage stood at 0.157.
For the variant G1U G50U, the self-cleavage came to 0.466.
Take G1C G11U: the self-cleavage was found to be 0.115.
Regarding G2C G40C, the self-cleavage was 0.122.
Under G2C A43C stands 0.147; under G2C C24U, 0.0405; under G2C C24G, 0.0361.
As to G2A C86U, the self-cleavage is 0.277.
For G2A C86A, the self-cleavage was determined as 0.172.
Next, G1A C48A: 0; G1A U69A: 0.145; G2U A78G: 0.089.
As to G2C U12C, the self-cleavage was determined as 0.175.
G1C A42G: the self-cleavage worked out at 0.
For the variant G1C A42U, the self-cleavage was found to be 0.
Take G1U A71C: the self-cleavage came to 0.297.
Under G2A A70G stands 0.0511.
Take G2A A70C: the self-cleavage was found to be 0.157.
For the variant G1A G68U, the self-cleavage worked out at 0.178.
In the case of G1C U20A, the self-cleavage came out at 0.
Under G2C C22A stands 0.114; under G2C C22U, 0.0567; under G2C C22G, 0.0875.
Consider G1U C13U, for which the self-cleavage was found to be 0.326.
Consider G1C C36G, for which the self-cleavage came out at 0.0437.
In the case of G2A U37G, the self-cleavage was 0.
For the variant G2A U37C, the self-cleavage came to 0.232.
For the variant G2U C13U, the self-cleavage stood at 0.
On to G1U U60G, for which the self-cleavage was found to be 0.443.
Next, G1U C26G: 0.469; G1A G34U: 0.095; G1A C15A: 0.0923.
Turning to G1A C15U, the self-cleavage amounted to 0.0665.
Consider G2U A87G, for which the self-cleavage turned out to be 0.0468.
Take G1U A78U: the self-cleavage is 0.415.
